Assay results taken from paper PMC9215227 (Journal of Virology, 2022).

Target: NP of SARS-CoV-2 (catalog no. 40588-V07E; Sino Biological) (SARS-CoV-2, UniProt P0DTC9 1-419)
Assay: SPR; […], Biacore T200; 0.01 M HEPES pH 7.4, 0.15 M NaCl, 3 mM EDTA, 0.05% Tween 20; […]; 1:1 binding model
Details: both partners purified

B1: 6×His-Flag-G3BP2 (natural protein)
chain: MVMEKPSPLLVGREFVRQYYTLLNKAPEYLHRFYGRNSSYVHGGVDASGKPQEAVYGQNDIHHKVLSLNFSECHTKIRHVDAHATLSDGVVVQVMGLLSNSGQPERKFMQTFVLAPEGSVPNKFYVHNDMFRYEDEVFGDSEPELDEESEDEVEEEQEERQPSPEPVQENANSGYYEAHPVTNGIEEPLEESSHEPEPEPESETKTEELKPQVEEKNLEELEEKSTTPPPAEPVSLPQEPPKAFSWASVTSKNLPPSGTVSSSGIPPHVKAPVSQPRVEAKPEVQSQPPRVREQRPRERPGFPPRGPRPGRGDMEQNDSDNRRIIRYPDSHQLFVGNLPHDIDENELKEFFMSFGNVVELRINTKGVGGKLPNFGFVVFDDSEPVQRILIAKPIMFRGEVRLNVEEKKTRAARERETRGGGDDRRDIRRNDRGPGGPRGIVGGGMMRDRDGRGPPPRGGMAQKLGSGRGTGQMEGRFTGQRR
Kd: 103 nM
